Test results as given in the supplement of paper PMC9170038.

Test system: MS2 coat protein
Experiment: apparent KD of MS2 coat protein; designed switch direction (-1 OFF switch, 1 ON switch): 1; higher = weaker reporter binding
Summary of the method: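 On Illumina chips, designed RNA switches with common flanks were made by stalled E. coli RNA polymerase. Titrations with SNAP-549-labelled MS2 coat protein, doubling from 0.7 or 1.5 nM to 3 µM, were done with no input, with 200 uM small-molecule ligand, or with an oligonucleotide input. Apparent KD is the median per design over clusters, from curve fits of normalised cluster fluorescence.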

[1] = input ligand: microRNA oligo, concentration not stated
[2] = Eterna round: R95, input ligand: microRNA oligo, concentration not stated
[3] = Eterna round: R95, input ligand: FMN 200 uM
[4] = Eterna round: R95, input ligand: none

Row | Sequence | apparent KD of MS2 coat protein (input ligand: FMN 200 uM) [nM] | apparent KD of MS2 coat protein [1] [nM] | apparent KD of MS2 coat protein (input ligand: none) [nM] | apparent KD of MS2 coat protein [2] [nM] | apparent KD of MS2 coat protein [3] [nM] | apparent KD of MS2 coat protein [4] [nM]
1 | CAUCUCCCUUUUACAUGAGGAUCACCCAUGUUUUUAUAUUGAGAGGAUAUCGUAUUUAGAAACAUCGAGAAGGCUCAUUUGUAU [JR_SSNG3_Sub072] (Eterna round: R96, puzzle: Same State NG 3) | 83.2 | 89.1 | 153 |  |  | 
2 | GGAUCGUCGGCAGGAUAUGAGCAAGUGCAUCGAUCAGAAGGGUCGAGUCCUAGAAGGUAAAGCACAUGAGGAUCACCCAUGUAG [Eternabot solution 39] (Eterna round: R96, puzzle: Same State NG 1) | 40.7 | 63.7 | 96.3 |  |  | 
3 | AGGCCACCGGAAGGAUAUGGCACCUUAUUGGUGCCAGAAGGUCCAACAUGAGGAUCACCCAUGUGGGUGGGUUCUAAUGAACAU [Fiskers NG1 - 2] (Eterna round: R96, puzzle: Same State NG 1) | 76.5 | 37.6 | 47.9 |  |  | 
4 | AAAGCACAUGAGGAUCACCCAUGUGGAAAUAACACAGGAUAUCUGGCCUAAGCUUAGGCGAGAGAAGGGUGACCUA [Beintivequ] (puzzle: Same State 1) |  |  |  | 65.5 |  | 
5 | GCAUUACAUGAGGAUCACCCAUGUCUCUAAAGUCGAGGAUAUGGGCAGGUUAUAUCCGAACCAGAAGGCGAAUUGC [SS1 Teenbexe 10] (puzzle: Same State 1) |  |  |  | 244 | 138 | 198
6 | GGUCCAUCAUGAGGAUAUGGCACCUUAUUGGUGCCAGAAGGCAUGUAAAUUAUAAUAACAUGAGGAUCACCCAUGUAUUGGACC [Eli NG1ss - 95] (Eterna round: R96, puzzle: Same State NG 1) | 44.6 | 218 | 492 |  |  | 
7 | UCUUGGUUUUUGCUCGUUUUUUGUGUUGAACAUGAGGAUCACCCAUGUAUUGUACGGUCCAGUUUGAUAGUGGUCCG [JMF 33] (puzzle: Sensor for hsa-mir-208a) |  |  |  | 13.6 | 25.6 | 29.9
8 | GCCAACUUAUGAGGAUAUGGCACCUUAUUGGUGCCAGAAGGCAUGUGAAUUCACAUGAGGAUCACCCAUGUAUUAUAGUUGGCA [Fiskers NG1ss - 20] (Eterna round: R96, puzzle: Same State NG 1) | 32.2 | 221 | 356 |  |  | 
9 | UAUGAAUAGCAAGGAUAUUGAUAACAUGAGGAUCACCCAUGUAAUUGAUCGAGUUAGAUCAGUUACAAGAAGGUGCAAUUGAUU [JR_SSNG2_Sub035] (Eterna round: R96, puzzle: Same State NG 2) |  | 19.4 |  |  |  | 
10 | UGGUACAUGGGAGGAUAUCAUGCAAACAUGAGGAUCACCCAUGUAACCAUGGAGACAUGGAUAUAUGAGAAGGCCCAUGUACCU [JL SSNG1 3.51] (Eterna round: R96, puzzle: Same State NG 2) | 11 | 19.6 | 27.9 |  |  | 
11 | ACAAGCUUUUUGCUCAUCUUAUGUCCGAAACAUGAGGAUCACCCAUGUGUAGAUUAUGUGUUGUUUUUGAUACGAGA [JR_SHM208A_Sub065] (puzzle: Sensor for hsa-mir-208a) |  |  |  | 28.4 | 68.1 | 80.3
12 | UACCUACCAGGAGGAUAUACAAACCCGAAAGGAGUAGAAGGCCUGAGUACUAACAUGAGGAUCACCCAUGUAGCGCCAGUUCGC [Eternabot solution 10] (Eterna round: R96, puzzle: Same State NG 1) | 18.2 | 15.1 | 17.4 |  |  | 
13 | GCGGAGAGGUAAGGAUAUCCAUGGCAUAGACAUGAGGAUCACCCAUGUAGGAGACGAAUUAGAAGGGAGAAGGUACCGGGACGC [AK SSNG2-V2-19] (Eterna round: R96, puzzle: Same State NG 2) | 175 | 111 | 168 |  |  | 
14 | GCGAGCGUACUUGCAGACAUGAGGAUCACCCAUGUAACUGGACAGGAUAUGGUACCGUUUCGGUACCAGAAGGGUCCAUAUGUC [JL SSNG3 3.54] (Eterna round: R96, puzzle: Same State NG 3) | 64.4 | 115 | 130 |  |  | 
15 | GGUAGGUUACUACCAUACAUGAGGAUCACCCAUGUAAAUGGGAAGGAUAUGGUACCUAUUUGGUACCAGAAGGUCCAAUUAAUU [JL Fiskers NG3ss - 2 mod 3] (Eterna round: R96, puzzle: Same State NG 3) | 148 | 446 | 706 |  |  | 
16 | AUUAGUUGCGGGCAGGAUAUGUAUUAAAAUACAUGAGGAUCACCCAUGUGCGGGUAUAACACCCGACAGAAGGGCCAAUCGCGAC [Mat - Same State 2 - Mod of UCT - D93] (puzzle: Same State 2) |  |  |  | 250 | 25.4 | 409

Row | Sequence | apparent KD of MS2 coat protein (input ligand: FMN 200 uM) [nM] | apparent KD of MS2 coat protein [1] [nM] | apparent KD of MS2 coat protein (input ligand: none) [nM] | apparent KD of MS2 coat protein [2] [nM] | apparent KD of MS2 coat protein [3] [nM] | apparent KD of MS2 coat protein [4] [nM]
17 | UUCUCAUUUACAUGAGGAUCACCCAUGUUUUUAUGUCAGAGAUAGGAUAUAGUUCUCUCGUUUUUCUAGAAGGAUCUUUUUAUU [JR_SSNG3_Sub086] (Eterna round: R96, puzzle: Same State NG 3) | 65.9 | 41.3 | 64.6 |  |  | 
18 | GCCGCGUUUCGCGCCUACAUGAGGAUCACCCAUGUUUGUAGGCAGGAUAUCGCCCGCUUUGCGGGCGAGAAGGGCUGUUGUGGC [salish99_SSNG3_R04_020] (Eterna round: R96, puzzle: Same State NG 3) | 59 | 38.8 | 55.5 |  |  | 
19 | AAAAUGGUAUGUUACAUGAGGAUCACCCAUGUACGGUCAUCUGAGGAUAUGGUGAUGUAGAAGAAUCAGAAGGCAGACAUUUAA [AK SSNG3-V2-26] (Eterna round: R96, puzzle: Same State NG 3) | 27.9 | 19.8 | 32.3 |  |  | 
20 | AUUAUUUAUGCAGGAUAUGAUUAACAUGAGGAUCACCCAUGUGGUGUUGUGAGUAAGGAGAGUGAUCAGAAGGGCAUUUUGUUU [JMF's solution 51] (Eterna round: R96, puzzle: Same State NG 2) | 794 | 321 | 451 |  |  | 
21 | UCAUGGUUUUUGCUCGUUUUAUGUGUUGAACAUGAGGAUCACCCAUGUAUUGUACGAUCCAGUUAGAUGGUGGUUUG [JR_SHM208A_Sub043] (puzzle: Sensor for hsa-mir-208a) |  |  |  | 85.8 | 235 | 469
22 | UUAAUAAUGUUAGGAUAUACAUGAGGAAUCCUCGUAGAAGGAACAUGACAUGAGGAUCACCCAUGUAGCGCUCCGAAGAGCGCA [Mat - Same State NG 1 - JL mod - D46] (Eterna round: R96, puzzle: Same State NG 1) | 254 | 115 | 161 |  |  | 
23 | GCUAGAAAUAAUGCCAACAUGAGGAUCACCCAUGUAUGUUGGCAGGAUAUCGUAUGCAAAGCAUACGAGAAGGGCUAAACUAGC [Mat - Same State NG 3 - JL Mod - D9] (Eterna round: R96, puzzle: Same State NG 3) | 217 | 190 | 231 |  |  | 
24 | AGGGAGGAGGCUGAGGAUAUCGUAAGGAGGACAUGAGGAUCACCCAUGUGUAUAGGAUUGGAGGACGAGAAGGCAGAGGAGUGGG [JR_SS2_Sub050] (puzzle: Same State 2) |  |  |  | 26.6 | 41.1 | 28.9
25 | UUUAGUUGCGGGCAGGAUAUGUAUUAAAAUACAUGAGGAUCACCCAUGUGCGGGUAUAACACCCGGCAGAAGGGCCAAUCGCGAC [Laonerce - 3] (puzzle: Same State 2) |  |  |  | 191 | 34.2 | 296
26 | CGCUGUCACGCAGGAUAUGCAUUGGAUUACAAUGCAGAAGGGCGAUCACAUGAGGAUCACCCAUGUGUAGACAGUGAAGAAGAG [MOD2 JMF Solution 3] (Eterna round: R96, puzzle: Same State NG 1) | 46.1 | 479 | 480 |  |  | 
27 | UUAAAACAUGAGGAUCACCCAUGUCAACAAAGUCGAGGAUAUGGGCAAAUAAAAUAAGAACCAGAAGGCGAAUAAA [salish99_SS1_r3_002] (puzzle: Same State 1) |  |  |  | 245 | 39.5 | 412
28 | GGUAGGUUACUACCAGACAUGAGGAUCACCCAUGUAAGUGGGAAGGAUAUGGUACCUUUUAGGUACCAGAAGGUCCAUAUAGUU [JL SSNG3 1.43] (Eterna round: R96, puzzle: Same State NG 3) | 253 | 429 | 1080 |  |  | 
29 | CGCGGUAAGGAAGGAUAUGGGACGAAAACGUACCUAGAAGGUCCACAUGAGGAUCACCCAUGUACCAAGAAAGCCGCGAAAUUA [Cereraus] (Eterna round: R96, puzzle: Same State NG 1) | 90.7 | 276 | 410 |  |  | 
30 | CAAGCUUGGGUCUUCCCGCUCGUCUACAAACAUGAGGAUCACCCAUGUAUACUCUUCGCAUCAAUUCUAUCUCUUGG [Onraenbi] (Eterna round: R96, puzzle: Sensor for hsa-mir-208a) | 176 | 23.1 | 163 |  |  | 
31 | GAGAGAUGAUUAGGAUAUACGGUGAUAAUGAUAGUAGAAGGAAUUGACAUGAGGAUCACCCAUGUGGGAAUAAUCCAGAGAGAG [Parity 22 - Jieux - Same State NG 1] (Eterna round: R96, puzzle: Same State NG 1) | 100 | 127 | 162 |  |  | 
